Substrate: O=C(O)c1c[nH]c2ccccc12
Test: LC-MS of adenylate
Format: biochemical, Caenorhabditis elegans
Conditions: with ATP and coenzyme A; adenylate formed, no CoA ester

B1: ACS-7 (Caenorhabditis elegans) (protein)
chain: MIFHGEQLENHDKPVHEVLLERFKVHQEKDPDNVAFVTAENEDDSLGFQQLGKKVLQISEWFVENGYKKGDVFLLASYNNWRCFAAALGAWRAGLIVSAAASQFTSFEMNYQIEDSQSQVILVDKHTLPVVQEACKNLKFVKQIISISANPPSPVIKFDVLTSRLVRNLKMPLIDPKNDIVFLPYSSGTTGKPKGVMISHLNFSMMLESSLRFFDANAKAIGLPPDFVLPYDLHFLPMYHAMGMFRTLLTSYRGTTQIMFTKFDMELMLKNIEKYSIMVLSLVPAIAVRMLNSPLLQKYDVSSLVSVTVGSAPFPESASKKLKQLLPNVNIVQGYGMTELTFATHLQSPGSPDGSVGRLVPGTSMKVKKEDGTLCGPHEIGELWIKGPQMMKGYWKKEQQTNELLDEHGFMRTGDIVYFDKNGETFICDRIKELIKVNAKQVAPAELESVILEHDDVADVCVFGVDDASSGERPVACVVSKRGRDMETSKAIMKHINQKLARYKHIKEIEFVSEIMRTGTGKLLRRAMKKAFLDAKKAKL
B1 was tested, and the Km was 270 ± 90 µM.
